Data as given in publication PMC8657982, “Overlap and Specificity in the Substrate Spectra of Human Monoamine Transporters and Organic Cation Transporters 1, 2, and 3” (International Journal of Molecular Sciences, 2021).

What was measured:
NET [1] = test system: NET; design: method as in PMID 31265842; conditions: cited from earlier work
DAT [2] = test system: DAT; design: method as in PMID 31265842; conditions: cited from earlier work
NET [3] = molecular target: NET (Homo sapiens, UniProt P23975); experiment: Uptake into HEK293 cells overexpressing NET (uptake ratio and concentration-dependent uptake); conditions: intrinsic clearance, quotient of vmax and Km
DAT [4] = molecular target: DAT (Homo sapiens, UniProt Q01959); experiment: Uptake into HEK293 cells overexpressing DAT (uptake ratio and concentration-dependent uptake); conditions: intrinsic clearance, quotient of vmax and Km
SERT = SERT (Homo sapiens, UniProt P31645); experiment: Uptake into HEK293 cells overexpressing SERT (uptake ratio and concentration-dependent uptake);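 note: incubation at 37 °C, intracellular compound quantified by HPLC-MS/MS after cell lysis, uptake normalized to total protein measured by bicinchoninic acid assay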;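 for Uptake Ratio by Transporter SERT: ratio of uptake in SERT cells over empty-vector control cells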
CNCCc1c[nH]c2ccc(O)cc12 = experiment: cells, lysate or membranes; conditions: pH 7.4;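 for Uptake Ratio by Transporter SERT: incubation at 37 °C, intracellular compound quantified by HPLC-MS/MS after cell lysis, uptake normalized to total protein measured by bicinchoninic acid assay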;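 for Uptake Ratio by Transporter SERT: ratio of uptake in SERT cells over empty-vector control cells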
[5] = test system: CN[C@@H]1CCc2[nH]c3ccc(C(N)=O)cc3c2C1; experiment: cells, lysate or membranes; conditions: other: SERT; concentration-dependent net uptake, Michaelis–Menten; pH 7.4;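 for Uptake Ratio by Transporter SERT: incubation at 37 °C, intracellular compound quantified by HPLC-MS/MS after cell lysis, uptake normalized to total protein measured by bicinchoninic acid assay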;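 for Uptake Ratio by Transporter SERT: ratio of uptake in SERT cells over empty-vector control cells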
N=C(N)NCc1cccc(I)c1 = experiment: cells, lysate or membranes; conditions: other: SERT; concentration-dependent net uptake, Michaelis–Menten; pH 7.4;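 for Uptake Ratio by Transporter SERT: incubation at 37 °C, intracellular compound quantified by HPLC-MS/MS after cell lysis, uptake normalized to total protein measured by bicinchoninic acid assay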;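 for Uptake Ratio by Transporter SERT: ratio of uptake in SERT cells over empty-vector control cells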
NCCc1c[nH]c2ccccc12 = experiment: cells, lysate or membranes; conditions: other: SERT; concentration-dependent net uptake, Michaelis–Menten; pH 7.4
OCT1 = molecular target: T1, OCT1 (Homo sapiens, UniProt O15245); experiment: Uptake into HEK293 cells overexpressing OCT1 (uptake ratio and concentration-dependent uptake); conditions: intrinsic clearance, quotient of vmax and Km
T1 sequence (O15245 1-554): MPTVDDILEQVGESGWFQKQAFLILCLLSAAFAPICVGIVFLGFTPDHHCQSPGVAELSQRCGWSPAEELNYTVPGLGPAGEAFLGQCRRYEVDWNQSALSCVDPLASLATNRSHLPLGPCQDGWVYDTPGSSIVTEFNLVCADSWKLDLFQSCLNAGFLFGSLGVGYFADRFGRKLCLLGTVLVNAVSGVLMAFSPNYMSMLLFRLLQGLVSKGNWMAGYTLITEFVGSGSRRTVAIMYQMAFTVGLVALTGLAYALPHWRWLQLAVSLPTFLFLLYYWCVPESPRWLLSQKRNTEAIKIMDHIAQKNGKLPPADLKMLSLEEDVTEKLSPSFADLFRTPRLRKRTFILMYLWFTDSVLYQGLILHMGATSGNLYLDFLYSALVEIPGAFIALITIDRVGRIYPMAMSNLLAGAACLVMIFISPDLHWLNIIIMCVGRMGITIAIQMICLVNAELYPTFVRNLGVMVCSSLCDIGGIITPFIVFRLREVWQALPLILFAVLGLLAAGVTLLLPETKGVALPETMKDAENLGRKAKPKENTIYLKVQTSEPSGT

OCT2 = molecular target: T2, OCT2 (Homo sapiens, UniProt O15244); experiment: Uptake into HEK293 cells overexpressing OCT2 (uptake ratio and concentration-dependent uptake)
T2 sequence (O15244 1-555): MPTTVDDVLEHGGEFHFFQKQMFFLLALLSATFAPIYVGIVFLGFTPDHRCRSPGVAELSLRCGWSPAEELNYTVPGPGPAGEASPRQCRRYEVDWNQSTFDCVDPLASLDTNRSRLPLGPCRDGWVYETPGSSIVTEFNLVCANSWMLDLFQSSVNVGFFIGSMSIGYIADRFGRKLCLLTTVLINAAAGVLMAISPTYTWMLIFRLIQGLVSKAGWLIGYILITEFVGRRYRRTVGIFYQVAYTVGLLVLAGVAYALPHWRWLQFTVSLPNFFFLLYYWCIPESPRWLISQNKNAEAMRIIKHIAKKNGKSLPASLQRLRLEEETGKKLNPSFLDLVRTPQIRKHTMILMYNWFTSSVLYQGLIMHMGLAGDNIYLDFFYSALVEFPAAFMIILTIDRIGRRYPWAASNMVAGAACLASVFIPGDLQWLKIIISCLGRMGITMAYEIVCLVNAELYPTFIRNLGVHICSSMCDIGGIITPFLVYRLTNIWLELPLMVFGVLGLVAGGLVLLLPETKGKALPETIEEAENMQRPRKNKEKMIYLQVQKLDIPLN

OCT3 = molecular target: T3, OCT3 (Homo sapiens, UniProt O75751); experiment: Uptake into HEK293 cells overexpressing OCT3 (uptake ratio and concentration-dependent uptake); conditions: intrinsic clearance, quotient of vmax and Km
T3 sequence (O75751 1-556): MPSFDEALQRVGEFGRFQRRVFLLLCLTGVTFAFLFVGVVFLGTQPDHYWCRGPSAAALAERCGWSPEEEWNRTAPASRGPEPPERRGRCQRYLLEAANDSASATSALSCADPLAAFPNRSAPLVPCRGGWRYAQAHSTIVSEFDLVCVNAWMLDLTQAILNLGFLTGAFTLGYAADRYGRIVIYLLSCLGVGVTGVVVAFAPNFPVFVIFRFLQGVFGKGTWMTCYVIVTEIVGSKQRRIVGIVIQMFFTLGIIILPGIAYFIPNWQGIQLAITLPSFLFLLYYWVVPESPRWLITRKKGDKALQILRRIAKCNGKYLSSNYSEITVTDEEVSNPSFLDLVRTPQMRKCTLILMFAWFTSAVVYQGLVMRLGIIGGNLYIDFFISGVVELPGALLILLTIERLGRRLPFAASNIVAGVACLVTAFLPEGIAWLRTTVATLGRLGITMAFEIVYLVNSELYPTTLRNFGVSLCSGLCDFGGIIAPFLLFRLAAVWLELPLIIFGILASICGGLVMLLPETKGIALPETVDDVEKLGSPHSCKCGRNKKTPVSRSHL

[6] = substrate: CNCCc1c[nH]c2ccc(O)cc12; experiment: cells, lysate or membranes; conditions: other: DAT; concentration-dependent net uptake, Michaelis–Menten; pH 7.4
[7] = substrate: N=C(N)NCc1cccc(I)c1; experiment: cells, lysate or membranes; conditions: other: DAT; concentration-dependent net uptake, Michaelis–Menten; pH 7.4
[8] = substrate: NCCc1c[nH]c2ccc(O)cc12; experiment: cells, lysate or membranes; conditions: other: DAT; concentration-dependent net uptake, Michaelis–Menten; pH 7.4
[9] = substrate: NCCc1ccc(O)c(O)c1; experiment: cells, lysate or membranes; conditions: other: DAT; concentration-dependent net uptake, Michaelis–Menten; pH 7.4
[10] = substrate: NCCc1ccccc1; experiment: cells, lysate or membranes; conditions: other: DAT; concentration-dependent net uptake, Michaelis–Menten; pH 7.4

Sequence of NET (Homo sapiens, UniProt P23975) (P23975 whole entry): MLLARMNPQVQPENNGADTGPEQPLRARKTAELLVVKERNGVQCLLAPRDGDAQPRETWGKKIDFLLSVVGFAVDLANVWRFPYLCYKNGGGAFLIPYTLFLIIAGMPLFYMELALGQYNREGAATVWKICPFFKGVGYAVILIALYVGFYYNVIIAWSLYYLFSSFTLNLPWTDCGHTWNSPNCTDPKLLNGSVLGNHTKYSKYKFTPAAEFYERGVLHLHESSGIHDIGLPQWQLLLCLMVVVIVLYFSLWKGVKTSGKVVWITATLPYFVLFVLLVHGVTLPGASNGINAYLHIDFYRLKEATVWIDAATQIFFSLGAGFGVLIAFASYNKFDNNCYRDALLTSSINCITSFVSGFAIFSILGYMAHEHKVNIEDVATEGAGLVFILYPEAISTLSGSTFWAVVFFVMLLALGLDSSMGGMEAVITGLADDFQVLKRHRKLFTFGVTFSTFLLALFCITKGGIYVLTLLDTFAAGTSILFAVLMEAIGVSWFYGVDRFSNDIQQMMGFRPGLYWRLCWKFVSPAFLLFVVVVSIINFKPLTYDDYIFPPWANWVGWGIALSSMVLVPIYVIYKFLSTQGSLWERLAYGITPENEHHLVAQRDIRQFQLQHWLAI
Sequence of SERT (P31645 whole entry): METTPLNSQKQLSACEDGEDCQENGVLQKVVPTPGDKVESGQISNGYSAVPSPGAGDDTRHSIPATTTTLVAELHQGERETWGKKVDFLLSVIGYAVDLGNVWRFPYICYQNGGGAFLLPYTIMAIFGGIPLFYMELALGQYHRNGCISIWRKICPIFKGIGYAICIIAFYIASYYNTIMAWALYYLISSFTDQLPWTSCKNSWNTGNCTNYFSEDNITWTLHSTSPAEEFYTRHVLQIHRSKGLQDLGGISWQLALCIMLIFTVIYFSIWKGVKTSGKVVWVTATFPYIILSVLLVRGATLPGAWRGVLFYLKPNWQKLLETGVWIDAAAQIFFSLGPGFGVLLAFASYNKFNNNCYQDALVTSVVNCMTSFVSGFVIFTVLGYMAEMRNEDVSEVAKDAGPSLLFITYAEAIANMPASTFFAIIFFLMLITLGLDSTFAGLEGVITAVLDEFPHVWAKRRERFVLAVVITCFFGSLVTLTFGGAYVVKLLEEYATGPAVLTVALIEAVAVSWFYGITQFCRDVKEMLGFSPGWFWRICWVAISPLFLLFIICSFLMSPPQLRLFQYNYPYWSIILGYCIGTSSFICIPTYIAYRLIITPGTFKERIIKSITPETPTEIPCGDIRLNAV

For `NCCc1ccccc1` [Phenylethylamine], the “NET inhibition IC50” value (NET [1]) is listed as “low micromolar range”, the “DAT inhibition IC50” value (DAT [2]) is listed as “low micromolar range” and the “Clint ± SEM” value (NET [3]) is listed as 3.4 mL × g Protein^−1 × min^−1. The “Clint ± SEM” value (DAT [4]) was 2.1 mL × g Protein^−1 × min^−1 and the “Uptake Ratio by Transporter SERT” value (SERT) was 1.71.

With SERT (Homo sapiens) the Km (CNCCc1c[nH]c2ccc(O)cc12) was 4.065 ± 1.829 µM, the Vmax (CNCCc1c[nH]c2ccc(O)cc12) was 1373.0 pmol × mg Protein^−1 × min^−1 and the Km [5] was 26.51 µM. For the same molecule, the Vmax [5] was 1020 pmol × mg Protein^−1 × min^−1, the Km (N=C(N)NCc1cccc(I)c1) was 11.2 ± 6.2 µM and the Vmax (N=C(N)NCc1cccc(I)c1) was 0.000429 µmol/min/mg. For the same molecule, the Vmax/Km (N=C(N)NCc1cccc(I)c1) was 38.2 µL/min/mg, the Km (NCCc1c[nH]c2ccccc12) was 29.0 µM and the Vmax (NCCc1c[nH]c2ccccc12) was 634.6 pmol × mg Protein^−1 × min^−1.

With `NCCc1c[nH]c2ccc(O)cc12` [Serotonin] the “Clint ± SEM” value (NET [3]) was 18.83 mL × g Protein^−1 × min^−1, the “Clint ± SEM” value (DAT [4]) was 77.39 mL × g Protein^−1 × min^−1 and the “Clint ± SEM” value (OCT1) was 21.91 mL × g Protein^−1 × min^−1. For the same molecule, the “Vmax ± SEM” value (OCT2; concentration-dependent net uptake, Michaelis–Menten) was 31,565 pmol × mg Protein^−1 × min^−1, the “Clint ± SEM” value (OCT2; intrinsic clearance, quotient of vmax and Km) was 46.04 mL × g Protein^−1 × min^−1 and the “Clint ± SEM” value (OCT3) was 1.17 mL × g Protein^−1 × min^−1. The “Clint ± SEM” value (SERT; SERT, intrinsic clearance, quotient of vmax and Km) was 256.9 mL × g Protein^−1 × min^−1.

B1: DAT (Homo sapiens) (protein)
chain: MSKSKCSVGLMSSVVAPAKEPNAVGPKEVELILVKEQNGVQLTSSTLTNPRQSPVEAQDRETWGKKIDFLLSVIGFAVDLANVWRFPYLCYKNGGGAFLVPYLLFMVIAGMPLFYMELALGQFNREGAAGVWKICPILKGVGFTVILISLYVGFFYNVIIAWALHYLFSSFTTELPWIHCNNSWNSPNCSDAHPGDSSGDSSGLNDTFGTTPAAEYFERGVLHLHQSHGIDDLGPPRWQLTACLVLVIVLLYFSLWKGVKTSGKVVWITATMPYVVLTALLLRGVTLPGAIDGIRAYLSVDFYRLCEASVWIDAATQVCFSLGVGFGVLIAFSSYNKFTNNCYRDAIVTTSINSLTSFSSGFVVFSFLGYMAQKHSVPIGDVAKDGPGLIFIIYPEAIATLPLSSAWAVVFFIMLLTLGIDSAMGGMESVITGLIDEFQLLHRHRELFTLFIVLATFLLSLFCVTNGGIYVFTLLDHFAAGTSILFGVLIEAIGVAWFYGVGQFSDDIQQMTGQRPSLYWRLCWKLVSPCFLLFVVVVSIVTFRPPHYGAYIFPDWANALGWVIATSSMAMVPIYAAYKFCSLPGSFREKLAYAIAPEKDRELVDRGEVRQFTLRHWLKV
For B1, the Km [6] was 43.82 ± 14.39 µM, the Vmax [6] was 3560 pmol × mg Protein^−1 × min^−1 and the Km [7] was 12.2 ± 1.46 µM. It also gave a Vmax [7] of 0.0028 µmol/min/mg, a Vmax/Km [7] of 229 µL/min/mg and a Km [8] of 50.50 µM. For the same molecule, the Vmax [8] was 3908 pmol × mg Protein^−1 × min^−1, the Km [9] was 25.1 µM and the Vmax [9] was 1977 pmol × mg Protein^−1 × min^−1. The Km [10] was 156 µM and the Vmax [10] was 325 pmol × mg Protein^−1 × min^−1.
